Source: paper PMC6551489, “Structural insights into interactions between viral suppressor of RNA silencing protein p19 mutants and small RNAs” (FEBS Open Bio, 2019)
Residue numbers refer to the chain shown, from its start. Numbers in names are those of the source.

T1: CIRV p19-WT (Carnation Italian ringspot virus, UniProt Q66104 1-172)
T1 sequence: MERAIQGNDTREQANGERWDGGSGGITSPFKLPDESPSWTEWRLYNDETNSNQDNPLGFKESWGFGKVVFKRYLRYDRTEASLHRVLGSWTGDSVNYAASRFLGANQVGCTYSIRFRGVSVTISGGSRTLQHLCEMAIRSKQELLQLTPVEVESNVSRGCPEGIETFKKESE

B1: GL2 siRNA duplex (dsRNA)
RNA 1: CGUACGCGGAAUACUUCGAUU
RNA 2: UCGAAGUAUUCCGCGUACGUU
modifications: 5' phosphorylated strands; text says deoxythymidine 2-nt overhangs, but printed as UU
B2: wild-type p19 protein from the Carnation Italian ringspot virus (natural protein)
chain: T1 sequence
notes: p19 viral suppressor of RNA silencing, Carnation Italian ringspot virus (CIRV), full-length construct, codon-optimized for E. coli, in pHis-parallel 2; Crystallised in complex with GL2 siRNA duplex; also called p19-WT; CIRV p19; source: E. coli BL21 DE3, purified (Nickel resin, TEV cleavage, size-exclusion chromatography); not shown: His6, N-terminal, cleaved
B3: p19-T111S mutant of the Carnation Italian ringspot virus p19 protein (natural protein, UniProt Q66104 1-172, looked up)
chain: T1 sequence with T111S
notes: Crystallised in complex with GL2 siRNA duplex; also called S111; source: E. coli BL21 DE3, purified (Nickel resin, TEV cleavage, size-exclusion chromatography); not shown: His6, N-terminal, cleaved
B4: p19-T111H mutant of the Carnation Italian ringspot virus p19 protein (natural protein, UniProt Q66104 1-172, looked up)
chain: T1 sequence with T111H
notes: Crystallised in complex with GL2 siRNA duplex; also called H111; source: E. coli BL21 DE3, purified (Nickel resin, TEV cleavage, size-exclusion chromatography); not shown: His6, N-terminal, cleaved

What was measured:
[1] = target: T1, CIRV p19-WT; test: X-ray crystallography; 2.2 A; Protein in 20 mM Tris pH 7.4, 150 mM NaCl, 1 mM TCEP before crystallization; crystallization conditions not in the material; settings: protein: recombinant; tags: N-terminal His6 removed with TEV protease; chain copies: 2; 19 bp, 3' overhang 2 nt on both strands
[2] = target: the molecule itself; test: crystal structure; p19 homodimer in complex with GL2 siRNA duplex; hanging drop vapour diffusion at 4 °C, 3-12% PEG 1500, 100 mM sodium acetate pH 4.6, 10-40 mM MgCl2; space group P1

Row | Binder | binding result [1] | binding result [2]
1 | B1 | binds | –
2 | B2 | – | binds
3 | B3 | – | binds
4 | B4 | – | binds
